Read-outs that look alike come from different tables or passages of the source.

4 molecules from PMC9483108 can be followed below.

The target of series [1] is T1, RPL (Col-0)-His (Arabidopsis thaliana (Col-0), UniProt Q9LZM8 1-575).
T1 sequence: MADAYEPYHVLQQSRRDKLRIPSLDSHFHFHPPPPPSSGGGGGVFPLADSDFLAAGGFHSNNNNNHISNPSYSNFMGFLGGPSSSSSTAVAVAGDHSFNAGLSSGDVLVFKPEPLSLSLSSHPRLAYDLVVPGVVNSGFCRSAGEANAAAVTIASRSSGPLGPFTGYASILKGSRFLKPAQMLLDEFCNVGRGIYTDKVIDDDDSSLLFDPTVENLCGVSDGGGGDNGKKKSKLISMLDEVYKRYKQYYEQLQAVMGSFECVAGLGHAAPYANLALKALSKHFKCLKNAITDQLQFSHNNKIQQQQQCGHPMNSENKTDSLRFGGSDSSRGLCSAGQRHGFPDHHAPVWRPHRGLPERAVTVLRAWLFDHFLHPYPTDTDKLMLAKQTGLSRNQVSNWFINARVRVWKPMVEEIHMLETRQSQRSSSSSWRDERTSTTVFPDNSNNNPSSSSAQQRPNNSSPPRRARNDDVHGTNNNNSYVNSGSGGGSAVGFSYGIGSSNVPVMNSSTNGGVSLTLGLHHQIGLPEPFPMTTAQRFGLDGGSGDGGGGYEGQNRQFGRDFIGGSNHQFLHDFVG
In words: EMSA.

For series [2], the target named is T1, RPL (Col-0)-His. Description: EMSA. The source holds these as a separate data set.

B1: CHI-m2-65bp (dsDNA)
DNA 1: GCTATTTTTTTTTTTTTTAATTTTATTGATCAATCAACTGAATACTGAATACAAAAGAAAACCTG
DNA 2: CAGGTTTTCTTTTGTATTCAGTATTCAGTTGATTGATCAATAAAATTAAAAAAAAAAAAAATAGC
As for B1, the binding result in the series with RPL (Col-0)-His [1] is listed as “binds”.

B2: GH3.3-m2-65bp (dsDNA)
DNA 1: AATCAAAAGAAAAAAAGCTTTTAGTATTGAGTATTGACCGTCGCTATCGGTGACAGGCAGAGTCA
DNA 2: TGACTCTGCCTGTCACCGATAGCGACGGTCAATACTCAATACTAAAAGCTTTTTTTCTTTTGATT
In the case of B2, the binding result in the series with RPL (Col-0)-His [2] was “binds”.

B3: GH3.3-m1-65bp (dsDNA)
DNA 1: CAAATTGAAAATGTCATTACCACTGATTAAAAAGGAATCAAAAGAAAAAAAGCTTTTAGTATTGA
DNA 2: TCAATACTAAAAGCTTTTTTTCTTTTGATTCCTTTTTAATCAGTGGTAATGACATTTTCAATTTG
As for B3, in the series with RPL (Col-0)-His [2], the binding result is listed as “binds”.

B4: CHI-m1-65bp (dsDNA)
DNA 1: CCATTTTTGTTTTTTGTTTTTTCAGTGACAAACTCACATGGATTTCATTTCAGATTCAGTTAGAT
DNA 2: ATCTAACTGAATCTGAAATGAAATCCATGTGAGTTTGTCACTGAAAAAACAAAAAACAAAAATGG
In the case of B4, the binding result with RPL (Col-0)-His [1] is recorded as “binds”.
